Biological target: CD19 extracellular domain (Homo sapiens, UniProt P15391 20-291)
Experiment: flow cytometry on protein-coated beads; PBS, 37 C; PBS, 37 C, 30 min, three PBS washes; bead flow cytometry, random ssDNA pool as background; pH not stated
Conditions: protein: commercial; label: FITC (flow cytometry); Cy3 (confocal); FITC at 5' end in selection primer

Sequence of CD19 extracellular domain (P15391 20-291): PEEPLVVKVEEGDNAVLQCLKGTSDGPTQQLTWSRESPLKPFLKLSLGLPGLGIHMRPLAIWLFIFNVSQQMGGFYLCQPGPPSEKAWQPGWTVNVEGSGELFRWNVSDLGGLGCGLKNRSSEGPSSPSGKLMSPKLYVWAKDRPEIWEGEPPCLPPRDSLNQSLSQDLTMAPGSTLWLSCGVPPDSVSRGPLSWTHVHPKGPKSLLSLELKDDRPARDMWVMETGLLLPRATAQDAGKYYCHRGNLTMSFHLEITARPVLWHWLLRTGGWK

B1: LC1 (ssDNA)
DNA: TGCGTGTGTAGTGTGTCTGTTCTCCTTTTTTTGGTTGCTGCTCTTAGGGATTTGGGCGG
  Kd: 85.4 nM
